Source: patent publication US20240091321A1 (AMICUS THERAPEUTICS, published 2024)
Each block holds one binder with its values, some of them ahead of it.

Assays:
CI-MPR receptor [1] = molecular target: T1, CI-MPR receptor; assay: CIMPR binding assay, PPT1 conditioned media, curves starting at 25 nM, bound PPT1 activity; the table prints no units, units of the axes
T1 construct: also called IGF2/CI-MPR; IGF2/Mannose-6-phosphate receptor

CI-MPR receptor [2] = molecular target: T1, CI-MPR receptor; assay: CIMPR binding assay, PPT1 conditioned media, dilution starting at 50 nM, bound PPT1 activity; the table prints no units, units of the axes
CI-MPR receptor [3] = molecular target: T1, CI-MPR receptor; assay: CIMPR plate binding assay, bound NAGLU activity (4MU released)
CI-MPR receptor [4] = molecular target: T1, CI-MPR receptor; assay: CI-MPR plate-binding assay in presence of M6P, bound PPT1 by activity assay
Description: (§1) In the binding assay, a plate was first coated with CI-MPR. Next, a sample containing the enzyme of interest was incubated on the plate. The plate was washed so that only substances bound to CI-MPR remain on the plate. The amount of the enzyme of interest bound to the plate was determined by enzyme assay or by mass spec. The binding assay was performed at a range of concentrations of the enzyme of interest in order to obtain a binding curve.
CI-MPR plate-binding assay performed as previously described, then amount bound was determined by PPT1 activity assay.

CI-MPR receptor [5] = molecular target: T1, CI-MPR receptor; assay: CI-MPR-coated plate binding assay, conditioned media of HEK 293 cells, bound TPP1 activity
Description: as §1

- Kd (CI-MPR receptor [3]): 325 nM
B2: WT NAGLU (enzyme)
enzyme: DEAREAAAVRALVARLLGPGPAADFSVSVERALAAKPGLDTYSLGGGGAARVRVRGSTGVAAAAGLHRYLRDFCGCHVAWSGSQLRLPRPLPAVPGELTEATPNRYRYYQNVCTQSYSFVWWDWARWEREIDWMALNGINLALAWSGQEAIWQRVYLALGLTQAEINEFFTGPAFLAWGRMGNLHTWDGPLPPSWHIKQLYLQHRVLDQMRSFGMTPVLPAFAGHVPEAVTRVFPQVNVTKMGSWGHFNCSYSCSFLLAPEDPIFPIIGSLFLRELIKEFGTDHIYGADTFNEMQPPSSEPSYLAAATTAVYEAMTAVDTEAVWLLQGWLFQHQPQFWGPAQIRAVLGAVPRGRLLVLDLFAESQPVYTRTASFQGQPFIWCMLHNFGGNHGLFGALEAVNGGPEAARLFPNSTMVGTGMAPEGISQNEVVYSLMAELGWRKDPVPDLAAWVTSFAARRYGVSHPDAGAAWRLLLRSVYNCSGEACRGHNRSPLVRRPSLQMNTSIWYNRSDVFEAWRLLLTSAPSLATSPAFRYDLLDLTRQAVQELVSLYYEEARSAYLSKELASLLRAGGVLAYELLPALDEVLASDSRFLLGSWLEQARAAAVSEAEADFYEQNSRYQLTLWGPEGNILDYANKQLAGLVANYYTPRWRLFLEALVDSVAQGIPFQQHQFDKNVFQLEQAFVLSKQRYPSQPRGDTVDLAKKIFLKYYPRWVAGSW
notes: also called untagged NAGLU

- Kd (CI-MPR receptor [1]): 3.87 nM
- Kd (CI-MPR receptor [2]): 3.41 nM
B4: PPT1-104 (enzyme)
fusion protein: DPPAPLPLVIWHGMGDSCCNPLSMGAIKKMVEKKIPGIYVLSLEIGKTLMEDVENSFFLNVNSQVTTVCQALAKDPKLQQGYNAMGFSQGGQFLRAVAQRCPSPPMINLISVGGQHQGVFGLPRCPGESSHICDFIRKTLNAGAYSKVVQERLVQAEYWHDPIKEDVYRNHSIFLADINQERGINESYKKNLMALKKFVMVKFLNDSIVDPVDSEWFGFYRSGQAKETIPLQETSLYTQDRLGLKEMDNAGQLVFLATEGDHLQLSEEWFYAHIIPFLGRPRAVPTQGGSGSGSTSSSRTLCGGELVDTLQFVCGDRGFLFSRGGGGSRGILEECCFRECDLALLETYCATPARSE

More lines, now with the values behind:

B1: PPT1-101 (enzyme)
fusion protein: MKLSLVAAMLLLLWVALLLLSAARAAASRTLCGGELVDTLQFVCGDRGFLFSRGGGGSRGILEECCFRDCDLALLETYCATPARSEGGGGSGGGGSRPRAVPTQDPPAPLPLVIWHGMGDSCCNPLSMGAIKKMVEKKIPGIYVLSLEIGKTLMEDVENSFFLNVNSQVTTVCQALAKDPKLQQGYNAMGFSQGGQFLRAVAQRCPSPPMINLISVGGQHQGVFGLPRCPGESSHICDFIRKTLNAGAYSKVVQERLVQAEYWHDPIKEDVYRNHSIFLADINQERGINESYKKNLMALKKFVMVKFLNDSIVDPVDSEWFGFYRSGQAKETIPLQETSLYTQDRLGLKEMDNAGQLVFLATEGDHLQLSEEWFYAHIIPFLG
- Kd (CI-MPR receptor [1]): 4.57 nM
- Kd (CI-MPR receptor [2]): 4.12 nM

B3: PPT1-29 (BiP2aa-vIGF2-PPT1) (enzyme)
chain: MKLSLVAAMLLLLWVALLLLSAARAAASRTLCGGELVDTLQFVCGDRGFLFSRPASRVSRRSRGIVEECCFRSCDLALLETYCATPARSEGGGGSGGGGSRPRAVPTQDPPAPLPLVIWHGMGDSCCNPLSMGAIKKMVEKKIPGIYVLSLEIGKTLMEDVENSFFLNVNSQVTTVCQALAKDPKLQQGYNAMGFSQGGQFLRAVAQRCPSPPMINLISVGGQHQGVFGLPRCPGESSHICDFIRKTLNAGAYSKVVQERLVQAEYWHDPIKEDVYRNHSIFLADINQERGINESYKKNLMALKKFVMVKFLNDSIVDPVDSEWFGFYRSGQAKETIPLQETSLYTQDRLGLKEMDNAGQLVFLATEGDHLQLSEEWFYAHIIPFLG
notes: Whole entry; it includes the modified BiP signal peptide
- Bmax (CI-MPR receptor [4]): 8.98
- Relative Kd (CI-MPR receptor [4]): 0.107

B5: PPT1-32 (wt-PPT1-vIGF2-32) (enzyme)
chain: DPPAPLPLVIWHGMGDSCCNPLSMGAIKKMVEKKIPGIYVLSLEIGKTLMEDVENSFFLNVNSQVTTVCQALAKDPKLQQGYNAMGFSQGGQFLRAVAQRCPSPPMINLISVGGQHQGVFGLPRCPGESSHICDFIRKTLNAGAYSKVVQERLVQAEYWHDPIKEDVYRNHSIFLADINQERGINESYKKNLMALKKFVMVKFLNDSIVDPVDSEWFGFYRSGQAKETIPLQETSLYTQDRLGLKEMDNAGQLVFLATEGDHLQLSEEWFYAHIIPFLGRPRAVPTQGGSGSGSTSSSRTLCGGELVDTLQFVCGDRGFLFSRGGGGSRGILEECCFRECDLALLETYCATPARSE
notes: Whole entry; it includes the native PPT1 signal peptide
- Bmax (CI-MPR receptor [4]): 6.05
- Relative Kd (CI-MPR receptor [4]): 0.121

B6: Natural hTTP1 (enzyme)
enzyme: SYSPEPDQRRTLPPGWVSLGRADPEEELSLTFALRQQNVERLSELVQAVSDPSSPQYGKYLTLENVADLVRPSPLTLHTVQKWLLAAGAQKCHSVITQDFLTCWLSIRQAELLLPGAEFHHYVGGPTETHVVRSPHPYQLPQALAPHVDFVGGLHRFPPTSSLRQRPEPQVTGTVGLHLGVTPSVIRKRYNLTSQDVGSGTSNNSQACAQFLEQYFHDSDLAQFMRLFGGNFAHQASVARVVGQQGRGRAGIEASLDVQYLMSAGANISTWVYSSPGRHEGQEPFLQWLMLLSNESALPHVHTVSYGDDEDSLSSAYIQRVNTELMKAAARGLTLLFASGDSGAGCWSVSGRHQFRPTFPASSPYVTTVGGTSFQEPFLITNEIVDYISGGGFSNVFPRPSYQEEAVTKFLSSSPHLPPSSYFNASGRAYPDVAALSDGYWVVSNRVPIPWVSGTSASTPVFGGILSLINEHRILSGRPPLGFLNPRLYQQHGAGLFDVTRGCHESCLDEEVEGQGFCSGPGWDPVTGWGTPNFPALLKTLLNP
notes: also called WT TPP1; TPP1 wildtype
- EC50 (read off the curve) (CI-MPR receptor [5]): ~0.4 nM

B7: PPT1-33 (wt-PPT1-vIGF2-8Q) (enzyme)
chain: DPPAPLPLVIWHGMGDSCCNPLSMGAIKKMVEKKIPGIYVLSLEIGKTLMEDVENSFFLNVNSQVTTVCQALAKDPKLQQGYNAMGFSQGGQFLRAVAQRCPSPPMINLISVGGQHQGVFGLPRCPGESSHICDFIRKTLNAGAYSKVVQERLVQAEYWHDPIKEDVYRNHSIFLADINQERGINESYKKNLMALKKFVMVKFLNDSIVDPVDSEWFGFYRSGQAKETIPLQETSLYTQDRLGLKEMDNAGQLVFLATEGDHLQLSEEWFYAHIIPFLGRPRAVPTQGGSGSGSTSSSRTLCGGELVDTLQFVCGDRGFLFSRPASRVSRRSRGIVEECCFRECDLALLETYCATPARSE
notes: as for B5
- Bmax (CI-MPR receptor [4]): 9.19
- Relative Kd (CI-MPR receptor [4]): 0.143
